# No end group written: not given here.
# Biological target: Circumsporozoite protein (CSP) (Plasmodium falciparum (isolate 3D7), UniProt Q7K740)
# Assay: AVEXIS screen signal:noise (double-corrected)
# Chain of Circumsporozoite protein (CSP) (Q7K740 19-374): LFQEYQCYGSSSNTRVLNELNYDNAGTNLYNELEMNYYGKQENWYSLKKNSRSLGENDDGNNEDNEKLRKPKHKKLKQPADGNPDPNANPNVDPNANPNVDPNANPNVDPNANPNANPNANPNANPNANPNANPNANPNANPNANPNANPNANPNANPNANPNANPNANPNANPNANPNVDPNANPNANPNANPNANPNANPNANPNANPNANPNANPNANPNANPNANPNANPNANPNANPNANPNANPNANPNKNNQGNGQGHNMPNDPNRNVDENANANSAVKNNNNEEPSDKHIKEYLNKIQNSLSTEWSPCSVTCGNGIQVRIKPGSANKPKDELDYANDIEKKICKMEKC
row,Binder,binding score
1,"ADP264 (protein, bait human Fc-tagged dimer) GRFSLFGLGGEPGGGAAGPAAAADGGTVDLREMLAVSVLAAVRGGDEVRRVRESNVLHEKSKGKTREGAEDKMTSGDVLSNRKMFYLLKTAFPSVQINTEEHVDAADQEVILWDHKIPEDILKEVTTPKEVPAESVTVWIDPLDATQEYTEDLRKYVTTMVCVAVNGKPMLGVIHKPFSEYTAWAMVDGGSNVKARSSYNEKTPRIVVSRSHSGMVKQVALQTFGNQTTIIPAGGAGYKVLALLDVPDKSQEKADLYIHVTYIKKWDICAGNAILKALGGHMTTLSGEEISYTGSDGIEGGLLASIRMNHQALVRKLPDLEKTGHK",0.964
2,"ADP281 (protein, also: human Fc-tagged dimer) SIYEMVVDVLFLCFAIDTKYNDGSPGREFYMDKVLMEFVENSRKAMKEAGKGGVADSRELKPMASG",0.848
3,"ADP304 (protein, bait human Fc-tagged dimer) MASGWWLWPLVAVCTADFFRDEAERIMRDSPVIDGHNDLPWQLLDMFNNRLQDERANLTTLAGTHTNIPKLRAGFVGGQFWSVYTPCDTQNKDAVRRTLEQMDVVHRMCRMYPETFLYVTSSAGIRQAFREGKVASLIGVEGGHSIDSSLGVLRALYQLGMRYLTLTHSCNTPWADNWLVDTGDSEPQSQGLSPFGQRVVKELNRLGVLIDLAHVSVATMKATLQLSRAPVIFSHSSAYSVCASRRNVPDDVLRLVKQTDSLVMVNFYNNYISCTNKANLSQVADHLDHIKEVAGARAVGFGGDFDGVPRVPEGLEDVSKYPDLIAELLRRNWTEAEVKGALADNLLRVFEAVEQASNLTQAPEEEPIPLDQLGGSCRTHYGYSS",0.718
4,"ADP375 (protein, bait human Fc-tagged dimer) SSKYAPDENCPDQNPRLRNWDPGQDSAKQVVIKEGDMLRLTSDATVHSIVIQDGGLLVFGDNKDGSRNITLRTHYILIQDGGALHIGAEKCRYKSKATITLYGKSDEGESMPTFGKKFIGVEAGGTLELHGARKASWTLLARTLNSSGLPFGSYTFEKDFSRGLNVRVIDQDTAKILESERFDTHEYRNESRRLQEFLRFQDPGRIVAIAVGDSAAKSLLQGTIQMIQERLGSELIQGLGYRQAWALVGVIDGGSTSCNESVRNYENHSSGGKALAQREFYTVDGQKFSVTAYSEWIEGVSLSGFRVEVVDGVKLNLLDDVSSWKPGDQIVVASTDYSMYQAEEFTLLPCSECSHFQVKVKETPQFLHMGEIIDGVDMRAEVGILTRNIVIQGEVEDSCYAENQCQFFDYDTFGGHIMIMKNFTSVHLSYVELKHMGQQQMGRYPVHFHLCGDVDYKGGYRHATFVDGLSIHHSFSRCITVHGTNGLLIKDTIGFDTLGHCFFLEDGIEQRNTLFHNLGLLTKPGTLLPTDRNNSMCTTMRDKVFGNYIPVPATDCMAVSTFWIAHPNNNLINNAAAGSQDAGIWYLFHKEPTGESSGLQLLAKPELTPLGIFYNNRVHSNFKAGLFIDKGVKTTNSSAADPREYLCLDNSARFRPHQDANPEKPRVAALIDRLIAFKNNDNGAWVRGGDIIVQNSAFADNGIGLTFASDGSFPSDEGSSQEVSESLFVGESRNYGFQGGQNKYVGTGGIDQKPRTLPRNRTFPIRGFQIYDGPIHLTRSTFKKYVPTPDRYSSAIGFLMKNSWQITPRNNISLVKFGPHVSLNVFFGKPGPWFEDCEMDGDKNSIFHDIDGSVTGYKDAYVGRMDNYLIRHPSCVNVSKWNAVICSGTYAQVYVQTWSTQNLSMTITRDEYPSNPMVLRGINQKAAFPQYQPVVMLEKGYTIHWNGPAPRTTFLYLVNFNKNDWIRVGLCYPSNTSFQVTFGYLQRQNGSLSKIEEYEPVHSLEELQRKQSERKFYFDSSTGLLFLYLKAKSHRHGHSYCSSQGCERVKIQAATDSKDISNCMAKAYPQYYRKPSVVKRMPAMLTGLCQGCGTRQVVFTSDPHKSYLPVQFQSPDKAETQRGDPSVISVNGTDFTFRSAGVLLLVVDPCSVPFRLTEKTVFPLADVSRIEEYLKTGIPPRSIVLLSTRGEIKQLNISHLLVPLGLAKPAHLYDKGSTIFLGFSGNFKPSWTKLFTSPAGQGLGVLEQFIPLQLDEYGCPRATTVRRRDLELLKQASKAH",0.71
5,"ADP351 (protein, bait human Fc-tagged dimer) MARRRGSPGMGVHVGAALGALWFCLTGALEVQVPEDPVVALVGTDATLCCSFSPEPGFSLAQLNLIWQLTDTKQLVHSFAEGQDQGSAYANRTALFPDLLAQGNASLRLQRVRVADEGSFTCFVSIRDFGSAAVSLQVAAPYSKPSMTLEPNKDLRPGDTVTITCSSYQGYPEAEVFWQDGQGVPLTGNVTTSQMANEQGLFDVHSILRVVLGANGTYSCLVRNPVLQQDAHSSVTITPQRSPTGAVEVQVPEDPVVALVGTDATLRCSFSPEPGFSLAQLNLIWQLTDTKQLVHSFTEGRDQGSAYANRTALFPDLLAQGNASLRLQRVRVADEGSFTCFVSIRDFGSAAVSLQVAAPYSKPSMTLEPNKDLRPGDTVTITCSSYRGYPEAEVFWQDGQGVPLTGNVTTSQMANEQGLFDVHSVLRVVLGANGTYSCLVRNPVLQQDAHGSVTITGQPMTFPP",1.23
6,"ADP345 (protein, bait human Fc-tagged dimer) MALLAGGLSRGLGSHPAAAGRDAVVFVWLLLSTWCTAPARAIQVTVSNPYHVVILFQPVTLPCTYQMTSTPTQPIVIWKYKSFCRDRIADAFSPASVDNQLNAQLAAGNPGYNPYVECQDSVRTVRVVATKQGNAVTLGDYYQGRRITITGNADLTFDQTAWGDSGVYYCSVVSAQDLQGNNEAYAELIVLGRTSGVAELLPGFQAGP",0.842
7,MTGLSMDGGGSPKGDVDPFYYDYETVRN (also: human Fc-tagged dimer) [ADP286],1.14
8,"ADP282 (protein, bait human Fc-tagged dimer) STWVTSEAYSSPSIVLSARGGDGSRIIFDDFREAYYWLRHNTPEDAKVMSWWDYGYQITAMANRTILVDNNTWNNTHISRVGQAMASTEEKAYEIMRELDVSYVLVIFGGLTGYSSDDINKFLWMVRIGGSTDTGKHIKENDYYTPTGEFRVDREGSPVLLNCLMYKMCYYRFGQVYTEAKRPPGFDRVRNAEIGNKDFELDVLEEAYTTEHWLVRIYKVKDLDNRGLSRT",0.691
9,"ADP344 (protein, bait human Fc-tagged dimer) MAWSFFRVVAMLFIFLVVVEVNSEFRIQVRDYNTKNGTIKWHSIRRQKREWIKFAAACREGEDNSKRNPIAKIHSDCAANQQVTYRISGVGIDQPPYGIFVINQKTGEINITSIVDREVTPFFIIYCRALNSMGQDLERPLELRVRVLDINDNPPVFSMATFAGQIEENSNANTLVMILNATDADEPNNLNSKIAFKIIRQEPSDSPMFIINRNTGEIRTMNNFLDREQYGQYALAVRGSDRDGGADGMSAECECNIKILDVNDNIPYMEQSSYTIEIQENTLNSNLLEIRVIDLDEEFSANWMAVIFFISGNEGNWFEIEMNERTNVGILKVVKPLDYEAMQSLQLSIGVRNKAEFHHSIMSQYKLKASAISVTVLNVIEGPVFRPGSKTYVVTGNMGSNDKVGDFVATDLDTGRPSTTVRYVMGNNPADLLAVDSRTGKLTLKNKVTKEQYNMLGGKYQGTILSIDDNLQRTCTGTININIQSFGNDDRTNTEPNTKITTNTGRQESTSSTNYDTSTTSTDSSQVYSSEPGNGAKDLLSDNVHFGPAG",1.01
10,"ADP388 (protein, bait human Fc-tagged dimer) SEGHGGAQLQAELRSLKEAFSNFSSSTLTEVQAISTHGGSVGDKITSLGAKLEKQQQDLKADHDALLFHLKHFPVDLRFVACQMELLHSNGSQRTCCPVNWVEHQGSCYWFSHSGKAWAEAEKYCQLENAHLVVINSWEEQKFIVQHTNPFNTWIGLTDSDGSWKWVDGTDYRHNYKNWAVTQPDNWHGHELGGSEDCVEVQPDGRWNDDFCLQVYRWVCEKRRNATGEVA",0.484
11,"ADP322 (protein, bait human Fc-tagged dimer) MAALGPALLQALWAGWVLTLQPLPPTAFTPNGTYLQHLARDPTSGTLYLGATNFLFQLSPGLQLEATVSTGPVLDSRDCLPPVMPDECPQAQPTNNPNQLLLVSPGALVVCGSVHQGVCEQRRLGQLEQLLLRPERPGDTQYVAANDPAVSTVGLVAQGLAGEPLLFVGRGYTSRGVGGGIPPITTRALWPPDPQAAFSYEETAKLAVGRLSEYSHHFVSAFARGASAYFLFLRRDLQAQSRAFRAYVSRVCLRDQHYYSYVELPLACEGGRYGLIQAAAVATSREVAHGEVLFAAFSSAAPPTVGRPPSAAAGASGASALCAFPLDEVDRLANRTRDACYTREGRAEDGTEVAYIEYDVNSDCAQLPVDTLDAYPCGSDHTPSPMASRVPLEATPILEWPGIQLTAVAVTMEDGHTIAFLGDSQGQLHRVYLGPGSDGHPYSTQSIQQGSAVSRDLTFDGTFEHLYVMTQSTLLKVPVASCAQHLDCASCLAHRDPYCGWCVLLGRCSRRSECSRGQGPEQWLWSFQPELGCLQVAAMSPANISREETREVFLSVPDLPPLWPGESYSCHFGEHQSPALLTGSGVMCPSPDPSEAPVLPRGADYVSVSVELRFGAVVIAKTSLSFYDCVAVTELRPSAQCQACVSSRWGCNWCVWQHLCTHKASCDAGPMVASHQSPLVSPDPPARGGPSPSPPTAPKALATPAPDTLPVEPGAPSTATASDISPGASPSLLSPWGPWAGSGSISSPGSTGSPLHEEPSPPSPQNGPGTAVPAPTDFRPSATPEDLLASPLSPSEVAAVPPADPGPEALHPTVPLDLPPATVPATTFPGAMGSVKPALDWLTREGGELPEADEWTGGDAPAFSTSTLLSGDGDSAELEGPPAPLILPSSLDYQYDTPGLWELEEATLGASSCPCVESVQGSTLMPVHVEREIRLLGRNLHLFQDGPGDNECVMELEGLEVVVEARVECEPPPDTQCHVTCQQHQLSYEALQPELRVGLFLRRAGRLRVDSAEGLHVVLYDCSVGHGDCSRCQTAMPQYGCVWCEGERPRCVTREACGEAEAVATQCPAPLIHSVEPLTGPVDGGTRVTIRGSNLGQHVQDVLGMVTVAGVPCAVDAQEYEVSSSLVCITGASGEEVAGATAVEVPGRGRGVSEHDFAYQDPKVHSIFPARGPRAGGTRLTLNGSKLLTGRLEDIRVVVGDQPCHLLPEQQSEQLRCETSPRPTPATLPVAVWFGATERRLQRGQFKYTLDPNITSAGPTKSFLSGGREICVRGQNLDVVQTPRIRVTVVSRMLQPSQGLGRRRRVVPETACSLGPSCSSQQFEEPCHVNSSQLITCRTPALPGLPEDPWVRVEFILDNLVFDFATLNPTPFSYEADPTLQPLNPEDPTMPFRHKPGSVFSVEGENLDLAMSKEEVVAMIGDGPCVVKTLTRHHLYCEPPVEQPLPRHHALREAPDSLPEFTVQMGNLRFSLGHVQYDGESPGAFPVAAQ",2.59
12,"ADP137 (protein, bait human Fc-tagged dimer) MAVVGNPRSWSCQWLPILILLLGTGHGPGVEGVTHYKAGDPVILYVNKVGPYHNPQETYHYYQLPVCCPEKIRHKSLSLGEVLDGDRMAESLYEIRFRENVEKRILCHMQLSSAQVEQLRQAIEELYYFEFVVDDLPIRGFVGYMEESGFLPHSHKIGLWTHLDFHLEFHGDRIIFANVSVRDVKPHSLDGLRPDEFLGLTHTYSVRWSETSVERRSDRRRGDDGGFFPRTLEIHWLS",0.831
